Results as given in patent publication US7425614B2, “Neuroprotective therapeutics preventing ERK/MAPK activation through the NMDA receptor” (Children's Medical Center Corporation, priority 2003, dated 2008).

Tests used:
[1] = target: T1, NR2B/RasGRF1 native complex (Rattus norvegicus, UniProt P28818+Q00960); experiment: competition co-immunoprecipitation of native NR2B-RasGRF1 complexes from rat brain microsomes; type: binding; conditions: NusA fusion proteins 3-5 μM; 6- to 8-week-old rat brains
T1 construct: from tissue; host or cells: P2 microsomes of 6- to 8-week-old rat brain
Description: Transfected cells were solubilized in lysis buffer (100 mM Tris-Cl [pH 8.5], 500 mM NaCl, 1% Triton X-100) supplemented with corn plete protease inhibitor (Roche) and immunoprecipitated with NR2B (Santa Cruz, sc-9057), NR1, or NR2A (Chemicon) antibody (5 μg/ml), washed with lysis buffer, separated on SDS gel, and blotted on PVDF. Blots were probed with anti-RasGRF1 (Santa Cruz) and the appropriate NR subunit antibody. 6- to 8-week-old rat brain P2 microsomes were isolated and solubilized as described (Luo, J., et al. (1997) Mol. Pharmacol. 51, 79-86). 80 μg of solubilized protein were immunoprecipitated with NR2B, RasGRF1, or pooled rabbit IgG, and immunoprecipitated proteins were probed on Western blot with RasGRF1 and NR2B antibodies. All immunoprecipitation experiments were only taken as valid if repeated 3-5 times with similar results. Routine negative controls with antigen pre-absorption were carried out for antibodies used in immunoprecipitation experiments. […]
For in vitro binding experiments, equimolar amounts of in vitro translated ^35S-labeled proteins (calculated from radioactivity of the excised protein band and cysteine content in the specific fragment) were incubated with a 3-fold molar excess of translated RasGRF1 for 30 min at 30° C., diluted with RIPA buffer, and immunoprecipitated with anti-HA-agarose (Santa Cruz). […]

[2] = system: hippocampal neurons; experiment: Assay I: glutamate excitotoxicity in primary cultures of dissociated hippocampal neurons; type: cell-based, rat; conditions: 20 minute exposure to Glutamate (100 μM) and Glycine (10 μM); expression in neurons; n=5
Description: (A) Survival of hippocampal neurons in culture exposed to Glutamate (100 μM) and Glycine (10 μM) for a 20 minute period. 14 div neuronal cultures were transfected with GFP, NR2B-BD or RasGRF1-BD 24 hours prior to analysis. The neuronal cultures were then incubated with glutamate for 20 minutes, washed with culture media and returned to the incubator for an additional 24 hours. The cells were then fixed with PFA and stained with a neuronal specific antibody, Map2. […] (B) Percentage of propidium iodide-resistant (surviving) neurons in organotypic hippocampal slices (P5+7div) expressing GFP, NR2B-BD or […] in control conditions and after 20 minutes exposure to NMDA (50 μM). The fluorescence of propidium iodide (PI) was measured 24 hours later. PI enters damaged cells and is a convenient tool to determine neuronal cell death. For PI staining, the slices were incubated in culture medium containing 0.1 mg/ml PI for 2 h. GFP, NR2B-BD and […] were expressed using the SindBis expression system. Mean±SEM. N=3.
Assay I: primary cultures of dissociated hippocampal neurons (FIG. 7(A)). This method may be used to analyze the mechanisms of glutamate-dependent excitotoxicity (see e.g., Medina, et al., Eur J Neurosci. (1999) 11(4): 1167-78). Briefly, neuronal cell death was induced by a 20 minute exposure to Glutamate (100 μM) and Glycine (10 μM). […]

[3] = system: NMDA receptor; experiment: evoked NMDA EPSCs in organotypic cultures of hippocampal slices; type: cell-based, rat
Description: Organotypic cultures of hippocampal slices were prepared as described (Becq, H., et al. (1999) J. Neurosci. Res. 58, 553-566) according to modified technique of Stoppini et al. (J. Neurosci. Methods 37, 173-182 (1991)). Hippocampal slices (400 μm) were cut from postnatal 7-day-old rat brains and incubated in culture medium in 5% CO2. Infections were performed on the 6th day of slice incubation by local pressure injection of virus via a patch pipette (tip diameter ˜1 μm) into the CA1 region of the hippocampus.
For electrophysiological recordings, slices were placed in a recording chamber and perfused with ACSF including in mM: 119 NaCl, 2.5 KCl, 2 CaCl2, 2 MgCl2, 26 NaHCO3, 1 NaH2PO4, 11 glucose, 0.01 bicuculline, 0.01 CNQX, 0.002 2-chloroadenosine (pH 7.4), in 5% CO2/95% O2. Synaptic responses were evoked by bipolar electrode with monophasic voltage pulses (1-10 V, 200 μs). The stimulating electrodes were placed over Schaeffer collateral fibers. NMDA evoked EPSCs were recorded at different holding potentials before, during, and after ifenprodil application in order to measure the I-V relationship. For analysis, at least 5 NMDA-evoked EPSCs were averaged for every experimental condition.

T1 sequence (Q00960 27-1482): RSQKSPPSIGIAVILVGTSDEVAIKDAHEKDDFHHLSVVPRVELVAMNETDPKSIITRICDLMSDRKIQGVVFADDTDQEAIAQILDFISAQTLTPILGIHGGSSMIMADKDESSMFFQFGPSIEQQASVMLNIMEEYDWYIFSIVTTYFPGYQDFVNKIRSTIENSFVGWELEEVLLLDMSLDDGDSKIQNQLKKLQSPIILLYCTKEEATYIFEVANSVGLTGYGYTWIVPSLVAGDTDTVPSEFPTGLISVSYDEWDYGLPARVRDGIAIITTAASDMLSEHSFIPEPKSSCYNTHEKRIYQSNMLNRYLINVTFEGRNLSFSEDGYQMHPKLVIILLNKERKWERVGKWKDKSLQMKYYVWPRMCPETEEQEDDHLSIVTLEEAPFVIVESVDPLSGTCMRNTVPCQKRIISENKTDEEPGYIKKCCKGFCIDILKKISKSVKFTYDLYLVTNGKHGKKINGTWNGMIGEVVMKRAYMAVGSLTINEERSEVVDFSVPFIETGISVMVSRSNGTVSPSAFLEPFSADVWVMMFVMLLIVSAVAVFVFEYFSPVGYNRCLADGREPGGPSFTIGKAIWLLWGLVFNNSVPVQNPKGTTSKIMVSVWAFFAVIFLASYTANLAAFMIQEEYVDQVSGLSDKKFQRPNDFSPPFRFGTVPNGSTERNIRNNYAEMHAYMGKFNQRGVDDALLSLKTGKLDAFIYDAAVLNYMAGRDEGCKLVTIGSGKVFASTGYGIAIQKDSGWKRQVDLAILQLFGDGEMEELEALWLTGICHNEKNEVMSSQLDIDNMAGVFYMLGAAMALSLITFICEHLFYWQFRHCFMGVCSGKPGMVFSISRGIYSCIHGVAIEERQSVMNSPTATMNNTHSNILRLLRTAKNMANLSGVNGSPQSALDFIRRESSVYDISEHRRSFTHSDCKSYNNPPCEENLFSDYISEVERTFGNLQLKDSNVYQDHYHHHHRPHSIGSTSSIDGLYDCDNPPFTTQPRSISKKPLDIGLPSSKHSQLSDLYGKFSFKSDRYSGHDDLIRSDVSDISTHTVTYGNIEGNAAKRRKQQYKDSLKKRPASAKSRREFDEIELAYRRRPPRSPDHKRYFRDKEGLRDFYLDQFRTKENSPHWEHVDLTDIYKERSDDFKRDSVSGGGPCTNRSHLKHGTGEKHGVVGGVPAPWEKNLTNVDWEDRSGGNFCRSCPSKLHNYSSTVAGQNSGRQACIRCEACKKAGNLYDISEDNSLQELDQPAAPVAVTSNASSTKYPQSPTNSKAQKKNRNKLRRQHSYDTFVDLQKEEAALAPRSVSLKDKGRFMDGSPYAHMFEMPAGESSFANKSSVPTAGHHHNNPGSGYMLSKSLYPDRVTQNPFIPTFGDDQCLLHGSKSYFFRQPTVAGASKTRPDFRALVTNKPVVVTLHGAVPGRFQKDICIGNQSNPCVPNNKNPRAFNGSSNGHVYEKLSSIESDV
T1 sequence (P28818 whole entry, the tested form may be a part): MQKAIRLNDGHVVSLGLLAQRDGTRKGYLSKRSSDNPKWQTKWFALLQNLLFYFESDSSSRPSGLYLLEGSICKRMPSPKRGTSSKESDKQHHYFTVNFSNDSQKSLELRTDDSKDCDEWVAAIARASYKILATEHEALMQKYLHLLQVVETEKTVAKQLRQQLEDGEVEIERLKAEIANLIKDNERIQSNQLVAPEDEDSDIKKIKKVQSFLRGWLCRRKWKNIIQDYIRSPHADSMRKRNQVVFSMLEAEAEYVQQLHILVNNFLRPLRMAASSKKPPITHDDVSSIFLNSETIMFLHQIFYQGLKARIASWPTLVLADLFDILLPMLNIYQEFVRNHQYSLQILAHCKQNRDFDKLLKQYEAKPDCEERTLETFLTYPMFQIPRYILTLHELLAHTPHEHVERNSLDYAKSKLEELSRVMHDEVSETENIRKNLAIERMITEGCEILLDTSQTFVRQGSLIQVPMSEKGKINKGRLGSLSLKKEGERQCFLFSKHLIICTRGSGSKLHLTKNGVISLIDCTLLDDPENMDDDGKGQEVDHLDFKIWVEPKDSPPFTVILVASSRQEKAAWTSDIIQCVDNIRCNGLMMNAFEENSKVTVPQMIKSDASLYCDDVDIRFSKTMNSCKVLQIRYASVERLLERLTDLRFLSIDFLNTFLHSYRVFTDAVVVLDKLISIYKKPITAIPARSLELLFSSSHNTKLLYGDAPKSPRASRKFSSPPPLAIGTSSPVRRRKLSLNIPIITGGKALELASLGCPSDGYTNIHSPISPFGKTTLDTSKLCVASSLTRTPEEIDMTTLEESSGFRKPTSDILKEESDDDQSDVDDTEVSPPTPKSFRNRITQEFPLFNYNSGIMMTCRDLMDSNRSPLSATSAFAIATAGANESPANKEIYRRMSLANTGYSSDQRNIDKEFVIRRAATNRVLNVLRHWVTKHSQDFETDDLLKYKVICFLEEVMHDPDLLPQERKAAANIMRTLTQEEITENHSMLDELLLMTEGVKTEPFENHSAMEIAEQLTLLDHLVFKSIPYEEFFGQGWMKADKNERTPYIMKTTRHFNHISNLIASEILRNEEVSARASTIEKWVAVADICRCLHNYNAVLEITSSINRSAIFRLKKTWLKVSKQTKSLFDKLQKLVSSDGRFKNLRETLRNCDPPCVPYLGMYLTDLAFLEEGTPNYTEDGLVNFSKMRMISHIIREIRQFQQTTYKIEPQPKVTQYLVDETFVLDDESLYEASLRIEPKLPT

B1: NR2B-BD: peptide of amino acids 886-1310 of the NR2B C-terminal domain that binds RasGRF1; used as NusA or EGFP fusion (protein)
chain: SPTATMNNTHSNILRLLRTAKNMANLSGVNGSPQSALDFIRRESSVYDISEHRRSFTHSDCKSYNNPPCEENLFSDYISEVERTFGNLQLKDSNVYQDHYHHHHRPHSIGSTSSIDGLYDCDNPPFTTQPRSISKKPLDIGLPSSKHSQLSDLYGKFSFKSDRYSGHDDLIRSDVSDISTHTVTYGNIEGNAAKRRKQQYKDSLKKRPASAKSRREFDEIELAYRRRPPRSPDHKRYFRDKEGLRDFYLDQFRTKENSPHWEHVDLTDIYKERSDDFKRDSVSGGGPCTNRSHLKHGTGEKHGVVGGVPAPWEKNLTNVDWEDRSGGNFCRSCPSKLHNYSSTVAGQNSGRQACIRCEACKKAGNLYDISKDNSLQELDQPAAPVAVTSNASSTKYPQSPTNSKAQKKNRNKLRRQHSYDTFVDL
modifications: left off: small tags and cut ends
notes: used as NusA or EGFP fusion
- co-immunoprecipitation of NR2B and RasGRF1 [1]: completely blocked
- decrease of neuronal cell death induced by glutamate and glycine [2]: 47±2%
- portion of the ifenprodil-sensitive component of the evoked EPSCs [3]: Neither of the expressed peptides decreased
